In US20210121563A1 (Novartis, published 2021):

Assays:
[1] = target: T1, Programmed Death 1 (PD-1) (UniProt Q15116 25-288, limits assumed); test: rank of the clone among the 16 humanized clones by FACS binding data; higher number = worse
[2] = target: T1, Programmed Death 1 (PD-1); test: rank of the clone in the competition binding assay with labeled murine mAb BAP049, 1st experiment; higher number = worse
[3] = target: T1, Programmed Death 1 (PD-1); test: rank of the clone in the competition binding assay with labeled murine mAb BAP049, 2nd experiment; higher number = worse
[4] = target: T1, Programmed Death 1 (PD-1); test: FACS blocking of ligand-Ig binding to PD-1, MFI of bound ligand; ligand by the legend paragraph 125 'PD-L1-Ig and PD-L2-Ig' (no ligand named on the sheet; FIG. 8B is PD-L2-Ig, so most likely PD-L1-Ig); cells not named

T1 sequence (Q15116 25-288 limits assumed): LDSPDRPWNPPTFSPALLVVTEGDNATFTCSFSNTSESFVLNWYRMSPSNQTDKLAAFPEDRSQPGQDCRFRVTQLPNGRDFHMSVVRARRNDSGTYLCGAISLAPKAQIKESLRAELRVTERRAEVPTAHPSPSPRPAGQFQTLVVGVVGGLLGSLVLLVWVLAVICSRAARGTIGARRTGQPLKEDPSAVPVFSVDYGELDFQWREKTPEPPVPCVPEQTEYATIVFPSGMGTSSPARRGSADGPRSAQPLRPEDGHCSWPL

Binder | Ranking, FACS data [1] | Competition Binding, 1st exp. (rank) [2] | Competition Binding, 2nd exp. (rank) [3] | IC50 (read off the curve) [4]
BAP049-hum13 (antibody, human IgG4 S228P, kappa, also called Clone No. 13) heavy: not shown light: DVVMTQSPLSLPVTLGQPASISCKSSQSLLDSGNQKNFLTWYQQKPGKAPKLLIYWASTRESGVPSRFSGSGSGTDFTFTISSLEAEDAATYYCQNDYSYPYTFGQGTKVEIKRTVAAPSVFIFPPSDEQLKSGTASVVCLLNNFYPREAKVQWKVDNALQSGNSQESVTEQDSKDSTYSLSSTLTLSKADYEKHKVYACEVTHQGLSSPVTKSFNRGEC | 6 | 1 | 1 | 
Chi mAb (Tyr) (antibody, human IgG4 S228P, kappa, V domains shown, also called BAP049-chi-Y; Chi (Tyr)) VH: QVQLQQSGSELVRPGASVKLSCKASGYTFTTYWMHWVRQRPGQGLEWIGNIYPGTGGSNFDEKFKNRTSLTVDTSSTTAYMHLASLTSEDSAVYYCTRWTTGTGAYWGQGTTVTVSS VL: DIVMTQSPSSLTVTAGEKVTMSCKSSQSLLDSGNQKNFLTWYQQKPGQPPKLLIFWASTRESGVPDRFTGSGSVTDFTLTISSVQAEDLAVYYCQNDYSYPYTFGQGTKVEIKR |  |  |  | ~0.8 µg/mL
Mu mAb (antibody, V domains shown, also called murine anti-PD-1 mAb BAP049; Mu mAb control) VH: QVQLQQSGSELVRPGASVKLSCKASGYTFTTYWMHWVRQRPGQGLEWIGNIYPGTGGSNFDEKFKNRTSLTVDTSSTTAYMHLASLTSEDSAVYYCTRWTTGTGAYWGQGTLVTVSA VL: DIVMTQSPSSLTVTAGEKVTMSCKSSQSLLDSGNQKNFLTWYQQKPGQPPKLLIFWASTRESGVPDRFTGSGSVTDFTLTISSVQAEDLAVYYCQNDYSYPCTFGGGTKLEIK |  |  |  | ~0.6 µg/mL
BAP049-hum02 (antibody, human IgG4 S228P, kappa, V domains shown, also called Clone No. 2) VH: EVQLVQSGAEVKKPGESLRISCKGSGYTFTTYWMHWVRQATGQGLEWMGNIYPGTGGSNFDEKFKNRVTITADKSTSTAYMELSSLRSEDTAVYYCTRWTTGTGAYWGQGTTVTVSS VL: DIQMTQSPSSLSASVGDRVTITCKSSQSLLDSGNQKNFLTWYQQKPGQAPRLLIYWASTRESGIPPRFSGSGYGTDFTLTINNIESEDAAYYFCQNDYSYPYTFGQGTKVEIKR | 6 | 3 | 2 | 
BAP049-hum12 (antibody, human IgG4 S228P, kappa, V domains shown, also called Clone No. 12) VH: EVQLVQSGAEVKKPGESLRISCKGSGYTFTTYWMHWVRQATGQGLEWMGNIYPGTGGSNFDEKFKNRVTITADKSTSTAYMELSSLRSEDTAVYYCTRWTTGTGAYWGQGTTVTVSS VL: DIQMTQSPSSLSASVGDRVTITCKSSQSLLDSGNQKNFLTWYLQKPGQSPQLLIYWASTRESGVPSRFSGSGSGTDFTFTISSLEAEDAATYYCQNDYSYPYTFGQGTKVEIKR | 3 | 8 | 16 | 
BAP049-hum16 (antibody, human IgG4 S228P, kappa, V domains shown, also called Clone No. 16) VH: EVQLVQSGAEVKKPGESLRISCKGSGYTFTTYWMHWVRQAPGQGLEWMGNIYPGTGGSNFDEKFKNRFTISRDNSKNTLYLQMNSLRAEDTAVYYCTRWTTGTGAYWGQGTTVTVSS VL: EIVLTQSPDFQSVTPKEKVTITCKSSQSLLDSGNQKNFLTWYQQKPGQAPRLLIYWASTRESGVPSRFSGSGSGTDFTFTISSLEAEDAATYYCQNDYSYPYTFGQGTKVEIKR | 15 | 16 | 15 | 
BAP049-hum03 (antibody, human IgG4 S228P, kappa, V domains shown, also called Clone No. 3) VH: EVQLVQSGAEVKKPGESLRISCKGSGYTFTTYWMHWIRQSPSRGLEWLGNIYPGTGGSNFDEKFKNRFTISRDNSKNTLYLQMNSLRAEDTAVYYCTRWTTGTGAYWGQGTTVTVSS VL: DIQMTQSPSSLSASVGDRVTITCKSSQSLLDSGNQKNFLTWYQQKPGQAPRLLIYWASTRESGIPPRFSGSGYGTDFTLTINNIESEDAAYYFCQNDYSYPYTFGQGTKVEIKR | 7 | 8 | 14 | 
BAP049-hum10 (antibody, human IgG4 S228P, kappa, also called humanized BAP049 clone hum10) heavy: not shown light: EIVLTQSPATLSLSPGERATLSCKSSQSLLDSGNQKNFLTWYQQKPGQAPRLLIYWASTRESGVPSRFSGSGSGTDFTFTISSLEAEDAATYYCQNDYSYPYTFGQGTKVEIKRTVAAPSVFIFPPSDEQLKSGTASVVCLLNNFYPREAKVQWKVDNALQSGNSQESVTEQDSKDSTYSLSSTLTLSKADYEKHKVYACEVTHQGLSSPVTKSFNRGEC | 7 | 6 | > 4 | 
BAP049-hum15 (antibody, human IgG4 S228P, kappa, also called Clone No. 15) heavy: not shown light: EIVLTQSPDFQSVTPKEKVTITCKSSQSLLDSGNQKNFLTWYQQKPGQAPRLLIYWASTRESGVPSRFSGSGSGTDFTFTISSLEAEDAATYYCQNDYSYPYTFGQGTKVEIKRTVAAPSVFIFPPSDEQLKSGTASVVCLLNNFYPREAKVQWKVDNALQSGNSQESVTEQDSKDSTYSLSSTLTLSKADYEKHKVYACEVTHQGLSSPVTKSFNRGEC | 6 | 7 | 15 | 
BAP049-hum11 (antibody, human IgG4 S228P, kappa, also called humanized BAP049 clone hum11) heavy: not shown light: EIVLTQSPATLSLSPGERATLSCKSSQSLLDSGNQKNFLTWYQQKPGQAPRLLIYWASTRESGVPSRFSGSGSGTDFTFTISSLEAEDAATYYCQNDYSYPYTFGQGTKVEIKRTVAAPSVFIFPPSDEQLKSGTASVVCLLNNFYPREAKVQWKVDNALQSGNSQESVTEQDSKDSTYSLSSTLTLSKADYEKHKVYACEVTHQGLSSPVTKSFNRGEC | 6 | 4 | > 4 | 
BAP049-hum04 (antibody, human IgG4 S228P, kappa, V domains shown, also called Clone No. 4) VH: EVQLVQSGAEVKKPGESLRISCKGSGYTFTTYWMHWIRQSPSRGLEWLGNIYPGTGGSNFDEKFKNRFTISRDNSKNTLYLQMNSLRAEDTAVYYCTRWTTGTGAYWGQGTTVTVSS VL: EIVLTQSPATLSLSPGERATLSCKSSQSLLDSGNQKNFLTWYQQKPGKAPKLLIYWASTRESGVPSRFSGSGSGTDFTFTISSLQPEDIATYYCQNDYSYPYTFGQGTKVEIKR | 14 | 15 | 15 | 
BAP049-hum01 (antibody, human IgG4 S228P, kappa, V domains shown, also called humanized BAP049 clone hum01) VH: EVQLVQSGAEVKKPGESLRISCKGSGYTFTTYWMHWVRQATGQGLEWMGNIYPGTGGSNFDEKFKNRVTITADKSTSTAYMELSSLRSEDTAVYYCTRWTTGTGAYWGQGTTVTVSS VL: EIVLTQSPATLSLSPGERATLSCKSSQSLLDSGNQKNFLTWYQQKPGQAPRLLIYWASTRESGVPSRFSGSGSGTEFTLTISSLQPDDFATYYCQNDYSYPYTFGQGTKVEIKR | 2 | 7 | 2 | 
BAP049-hum06 (antibody, human IgG4 S228P, kappa, also called Clone No. 6) heavy: not shown light: DIVMTQTPLSLPVTPGEPASISCKSSQSLLDSGNQKNFLTWYQQKPGQAPRLLIYWASTRESGVPSRFSGSGSGTDFTFTISSLEAEDAATYYCQNDYSYPYTFGQGTKVEIKRTVAAPSVFIFPPSDEQLKSGTASVVCLLNNFYPREAKVQWKVDNALQSGNSQESVTEQDSKDSTYSLSSTLTLSKADYEKHKVYACEVTHQGLSSPVTKSFNRGEC | 1 | 7 | 3 | 
BAP049-hum07 (antibody, human IgG4 S228P, kappa, also called Clone No. 7) heavy: not shown light: EIVLTQSPATLSLSPGERATLSCKSSQSLLDSGNQKNFLTWYQQKPGKAPKLLIYWASTRESGVPSRFSGSGSGTDFTFTISSLEAEDAATYYCQNDYSYPYTFGQGTKVEIKRTVAAPSVFIFPPSDEQLKSGTASVVCLLNNFYPREAKVQWKVDNALQSGNSQESVTEQDSKDSTYSLSSTLTLSKADYEKHKVYACEVTHQGLSSPVTKSFNRGEC | 4 | 7 | > 4 | 
BAP049-hum14 (antibody, human IgG4 S228P, kappa, also called Clone No. 14) heavy: not shown light: EIVLTQSPATLSLSPGERATLSCKSSQSLLDSGNQKNFLTWYQQKPGQAPRLLIYWASTRESGVPSRFSGSGSGTDFTFTISSLEAEDAATYYCQNDYSYPYTFGQGTKVEIKRTVAAPSVFIFPPSDEQLKSGTASVVCLLNNFYPREAKVQWKVDNALQSGNSQESVTEQDSKDSTYSLSSTLTLSKADYEKHKVYACEVTHQGLSSPVTKSFNRGEC | 16 | 7 | 15 | 
BAP049-hum09 (antibody, human IgG4 S228P, kappa, also called humanized BAP049 clone hum09) heavy: not shown light: EIVLTQSPDFQSVTPKEKVTITCKSSQSLLDSGNQKNFLTWYQQKPGQAPRLLIYWASTRESGVPSRFSGSGSGTDFTFTISSLEAEDAATYYCQNDYSYPYTFGQGTKVEIKRTVAAPSVFIFPPSDEQLKSGTASVVCLLNNFYPREAKVQWKVDNALQSGNSQESVTEQDSKDSTYSLSSTLTLSKADYEKHKVYACEVTHQGLSSPVTKSFNRGEC | 7 | 2 | 4 | ~0.7 µg/mL
BAP049-hum05 (antibody, human IgG4 S228P, kappa, V domains shown, also called humanized BAP049 clone hum05) VH: EVQLVQSGAEVKKPGESLRISCKGSGYTFTTYWMHWVRQATGQGLEWMGNIYPGTGGSNFDEKFKNRVTITADKSTSTAYMELSSLRSEDTAVYYCTRWTTGTGAYWGQGTTVTVSS VL: EIVLTQSPATLSLSPGERATLSCKSSQSLLDSGNQKNFLTWYQQKPGKAPKLLIYWASTRESGVPSRFSGSGSGTDFTFTISSLQPEDIATYYCQNDYSYPYTFGQGTKVEIKR | 5 | 5 | > 4 | 
BAP049-hum08 (antibody, human IgG4 S228P, kappa, also called humanized BAP049 clone hum08) heavy: not shown light: EIVLTQSPDFQSVTPKEKVTITCKSSQSLLDSGNQKNFLTWYQQKPGQAPRLLIYWASTRESGVPSRFSGSGSGTDFTFTISSLEAEDAATYYCQNDYSYPYTFGQGTKVEIKRTVAAPSVFIFPPSDEQLKSGTASVVCLLNNFYPREAKVQWKVDNALQSGNSQESVTEQDSKDSTYSLSSTLTLSKADYEKHKVYACEVTHQGLSSPVTKSFNRGEC | 7 | 7 | 4 | 
